Assay results: the RNAGym collection of RNA variant scans (doi:10.1073/pnas.2313332121)

B1: TPR t1 (parent)
chain: GACCAAUCUGCCCUCAGAGCUCGAGAACAUCUUCGGAUGCAGAGGAGGCAGGCUUCGGUGGCGCGAUAGCGCCAACGUCCUCAACCUCCAAUGCAUCCCACCACAUGAUGAUGCCUGAAGAGCCUUGGUUUUUUG

Variants of: B1
Test: polymerase ribozyme fitness, log enrichment relative to wild type (log ratio); higher = more active; in vitro selection for triplet polymerase activity
In short: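 Genotype fitness is the logarithm of its enrichment divided by wild-type enrichment, using inverse-variance-weighted averages of replicates. That logarithm is base 2. Enrichment was measured by Illumina sequencing of input and output libraries from one triplicate in vitro selection round, with frozen incubation at −7 °C, on PCR-built, transcribed mutant libraries of each subunit of a heterodimeric triplet polymerase ribozyme, retaining genotypes with ≥10 input reads and ≥1 read per output.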

In order of falling “polymerase ribozyme fitness (log ratio)” value:
1. C3U G69U A121G U125A  2.91
2. C12G U112A  1.99
3. C13U C40U C124G  1.61
4. C88G U112A  1.18
5. G48A C72G C124U  0.723
6. G60A G120A  0.658
7. U7G A74U A118U  0.595
8. G42C G61A C124A U125A  0.506
9. C8G G60C U81A C123A  0.434
10. C11U C40U A121C U129G  0.406
11. C8G C49G  0.323
12. C53A A111C  0.297
13. C72G C86U  0.195
14. C8A U133A  0.119
15. A83C C101U  0.114
16. C8G U55G C88A A121U G128U  0.0321
17. U7G C53G A90G  0.0166
18. C8U C101A  -0.038
19. U7A U9G C82G  -0.227
20. C101A C115A G120C  -0.291
21. C40U G57U  -0.292
22. G120U U130A  -0.3
23. C8A G48U  -0.337
24. C101U G120C  -0.354
25. U7G A111C U112A C123G  -0.393
26. C73G C104U  -0.454
27. C8U C72U U78C U81A A83G  -0.492
28. G71C G120U  -0.52
29. C89G C123U  -0.521
30. C72A U129C  -0.6
31. C49U U106A  -0.703
32. G61A G117A  -0.803
33. G44C G77A  -0.814
34. C12A U87A  -0.82
35. A37U C49G  -0.828
36. G61A C82A  -0.883
37. G36U U130C  -0.893
38. C4U G60A  -0.911
39. G135U  -0.939
40. G60U G93U  -1.03
41. G39C C104U  -1.04
42. U54A G69A U78G C82G A121U U130A  -1.06
43. C15A C101U U112A  -1.08
44. C49U C94U  -1.08
45. G69U C98U U112G  -1.16
46. G113A C123G U129A  -1.16
47. A43U G45A G58C  -1.24
48. C8G C15G C72G  -1.27
49. G57C C89U G120C  -1.28
50. C3U C13A  -1.28
51. C73U G93C G113A C124G  -1.29
52. U38A A111G  -1.31
53. A37G A100U  -1.32
54. A50C C72U U81G C85A  -1.34
55. A41U C53G G77A  -1.35
56. C53U G71A C124A G128C  -1.39
57. C13U G36U U133A  -1.43
58. C62G C104U  -1.52
59. U9C A43G G61A C89U  -1.55
60. A6U A50U A95C  -1.57
61. C3U C12U  -1.59
62. U21A U38G C56A  -1.66
63. A27U C73U U131G  -1.71
64. C20U G63A  -1.73
65. G60C G61U  -1.76
66. A18G G113A  -1.78
67. G10U G61C  -1.82
68. A50C G71A G77U G120C  -1.85
69. C8G G19A  -1.89
70. U78C C115G U133A  -1.97
71. A18U C64U  -2
72. G120A G122A G128C  -2.03
73. C40G U55G C62U U78G  -2.04
74. G17C U116G C124A  -2.05
75. C13A C72U U78A  -2.1
76. A46U G47A  -2.18
77. G44A G48U U125G  -2.23
78. U81C A90C U112G  -2.24
79. C82A A105U  -2.27
80. C73A U92A C104U  -2.28
81. C79G A84U  -2.3
82. A24G C85G  -2.32
83. A26U A37C  -2.35
84. U7C U14G G48U  -2.35
85. A50U G52U  -2.39
86. C72A A105U G122A  -2.49
87. G42C G45U U133A  -2.53
88. C64U G113U  -2.54
89. A75U G113A G127C  -2.56
90. A6G A43G  -2.57
91. C13U G19U A50G A91U  -2.58
92. C49U G117U  -2.67
93. A5C C12A G61U G113C  -2.74
94. C11A G113U G122U  -2.8
95. C11U G110C  -2.8
96. U9A G48C C86A C101A C114U C124U  -2.84
97. G93C G117U  -2.87
98. C11A C12U U38A G69C  -2.89
99. U7A U109G  -2.9
100. A2G C11A G71U A90U U130A U133G  -2.92
101. C4G A46U C53U C70A  -2.97
102. U14G A37C  -2.99
103. U106C G113U  -3.01
104. C3A G71C  -3.03
105. C20A A74G  -3.04
106. C8A A24G G113A  -3.12
107. U21G U87G U133G  -3.13
108. C49A C56G G69U C72A  -3.13
109. A16C C70U  -3.17
110. A2C A18U C124A  -3.22
111. G19U C53G U54A C124A G128A  -3.23
112. C34A G71A  -3.26
113. G17U G117A  -3.31
114. G47U C62U G71U C82A A95U  -3.36
115. G47A G63A C85G  -3.45
116. C4U A43U C70U  -3.47
117. G19A G60A A95U  -3.51
118. C20U G61C G93C  -3.53
119. G17C C20A A43C C123A U129G  -3.55
120. C22G G36A G47C A119U C124G  -3.6
121. A6U G10C C34A U81A U112C G120C  -3.64
122. C62U C70G  -3.65
123. A26G A46G G60U  -3.73
124. U78C U87G C88A G113A G127A  -3.89
125. A37G A68G A111C C124G  -3.95
126. C86G G113U  -3.98
127. U9G A27C C114A  -3.98
128. U7A A26U C49U C94G C123G  -4.09
129. G47C G69A  -4.38
130. C8G C70G A74U  -4.41
131. C13A A50C G52U G93C  -4.43
132. G36U G44A C104A  -4.47
133. C8U C34A G44U G61U U130G  -4.49
134. A2G G63C A74C U87C A100U  -4.51
135. U33C C79U  -4.51
136. C20G G69U C99A  -4.6
137. U9C G10C C62G C72A A111G U125C  -4.6
138. C56A G69U U78A A90C C97A A118U  -4.65
139. A46G G58U G69A G110A  -4.68
140. G51C U78C A121C G122U C124A  -4.73
141. A46C G63C G93A U116A G120U G135U  -4.76
142. C28A C70A  -4.81
143. C40G G57C C79U G93U G117C C123A  -4.88
144. A43U G63A A95G G120U G128U  -4.88
145. C94G C114G G120C  -4.95
146. C73U G110A G117A C124U  -4.95
147. C40U C62U C73G C85G  -5.15
148. G63U A74U G77A  -5.16
149. C22A G36U C88U C115A  -5.17
150. U9G G23A  -5.2
151. A26U C97A A121U  -5.2
152. G47U C72G G117U  -5.24
153. C13U U14G A68G  -5.25
154. A6U G45C C101U G110C  -5.31
155. G19U C56G U106C  -5.42
156. G44U C72G U92A C115G  -5.53
157. C8U G36U G58C A91C U96C A111U A121U  -5.93
158. A108U U112C  -5.97
159. G60U A91C G93U C104A G117U  -6
160. C12G A18G G44C G71C A84U  -6.08
161. G69C C70A G117A A121G  -6.08
162. G60U G71A U92G C123A  -6.18
163. A6G U14G C28U G110C C115U U125A  -6.22
164. G19U G51A G60C G120A  -6.42
165. U7G A68U  -6.53
166. C11U C13G A24G G47C C49A C88G C94U A108U C114U  -6.99
167. G17C G25U G47C G120A G127A  -7.42
